The series deals with the molecule itself. As to the kind of experiment: crystal structure.

B1: S-adenosyl-L-methionine-dependent methyltransferase RdmB from Streptomyces purpurascens (enzyme)
chain: MSSSSPGEPLEPTDQDLDVLLKNLGNLVTPMALRVAATLRLVDHLLAGADTLAGLADRTDTHPQALSRLVRHLTVVGVLEGGEKQGRPLRPTRLGMLLADGHPAQQRAWLDLNGAVSHADLAFTGLLDVVRTGRPAYAGRYGRPFWEDLSADVALADSFDALMSCDEDLAYEAPADAYDWSAVRHVLDVGGGNGGMLAAIALRAPHLRGTLVELAGPAERARRRFADAGLADRVTVAEGDFFKPLPVTADVVLLSFVLLNWSDEDALTILRGCVRALEPGGRLLVLDRADVEGDGADRFFSTLLDLRMLTFMGGRVRTRDEVVDLAGSAGLALASERTSGSTTLPFDFSILEFTAVSEEAAPAAQASEALPAQE
Take B1: the binding result is “binds”.

(Values after publication PMC11415531 (Synthetic and Systems Biotechnology, 2024).)
